Among the data in PMC7307101 are response values, retold here.

Test [1] deals with trimeric influenza virus polymerase of A/England/195/2009(pH1N1) (PB2, PB1-Gluc1, PA). Nature of the test: split-luciferase assay. The conditions noted are these: parent: est. 1.5; read off a plot.
Test [2] addresses trimeric influenza virus polymerase of A/turkey/England/50-92/1991(H5N1) (PB2, PB1-Gluc1, PA). Nature of the test: split-luciferase assay. As to conditions: parent: est. 30; read off a plot.

For the substance “human ANP32A-Gluc2 (from UniProt P39687) I106V; P156S”, the response in test [1] stood at 3.5 NLR; in test [2], 55 NLR.
